According to paper PMC2828957 (Molecular Biology of the Cell, 2010):

T1: GST-Sec63C (complete C-terminal domain of human Sec63, residues 210-760, N-terminal GST) (human, UniProt Q9UGP8 210-760)
T1 sequence (looked up): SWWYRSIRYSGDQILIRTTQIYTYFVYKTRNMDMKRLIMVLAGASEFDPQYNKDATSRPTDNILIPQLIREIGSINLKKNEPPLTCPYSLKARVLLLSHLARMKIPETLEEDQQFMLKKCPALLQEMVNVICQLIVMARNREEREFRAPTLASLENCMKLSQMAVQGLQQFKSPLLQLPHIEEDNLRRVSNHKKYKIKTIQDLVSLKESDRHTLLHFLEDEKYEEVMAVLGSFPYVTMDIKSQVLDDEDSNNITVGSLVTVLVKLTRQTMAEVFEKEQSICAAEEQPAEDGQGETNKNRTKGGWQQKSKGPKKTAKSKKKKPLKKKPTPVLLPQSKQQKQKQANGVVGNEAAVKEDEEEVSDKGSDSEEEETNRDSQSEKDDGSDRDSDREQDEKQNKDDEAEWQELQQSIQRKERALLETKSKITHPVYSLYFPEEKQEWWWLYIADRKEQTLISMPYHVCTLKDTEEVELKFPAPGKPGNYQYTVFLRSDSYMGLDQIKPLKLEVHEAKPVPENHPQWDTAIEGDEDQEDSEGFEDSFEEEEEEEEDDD

B1: human Sec62N (N-terminal domain of human Sec62, residues 1-195, C-terminal hexa-histidine tag) (domain or fragment, UniProt Q99442 1-195, looked up)
chain: MAERRRHKKRIQEVGEPSKEEKAVAKYLRFNCPTKSTNMMGHRVDYFIASKAVDCLLDSKWAKAKKGEEALFTTRESVVDYCNRLLKKQFFHRALKVMKMKYDKDIKKEKDKGKAESGKEEDKKSKKENIKDEKTKKEKEKKKDGEKEESKKEETPGTPKKKETKKKFKLEPHDDQVFLDGNEVYVWIYDPVHFK
B2: GST-Sec63C26 (C-terminal 26 amino acid residues of human Sec63, residues 734-760, N-terminal GST) (domain or fragment, UniProt Q9UGP8 734-760, looked up)
chain: EGDEDQEDSEGFEDSFEEEEEEEEDDD
B3: Sec62N-ΔN10-ΔC40 (human Sec62 residues 11-155, C-terminal hexa-histidine tag) (domain or fragment, UniProt Q99442 11-155, looked up)
chain: IQEVGEPSKEEKAVAKYLRFNCPTKSTNMMGHRVDYFIASKAVDCLLDSKWAKAKKGEEALFTTRESVVDYCNRLLKKQFFHRALKVMKMKYDKDIKKEKDKGKAESGKEEDKKSKKENIKDEKTKKEKEKKKDGEKEESKKEET

Assays:
[1] = target: T1, GST-Sec63C (complete C-terminal domain …); assay: SPR
[2] = target: B1; assay: pull-down
[3] = target: B3; assay: pull-down
[4] = target: T1, GST-Sec63C (complete C-terminal domain …); assay: pull-down

B1
Kd [1]: 4.78 nM

B2
binding result [2]: binds
binding result [3]: binds

B3
binding result [4]: binds
